Ten molecules from patent US20210155689A1 (SHANGHAI PHARMAEXPLORER, published 2021) can be followed below.

Experiment [1] has as its target T1, monkey LAG-3 on cells (HEK293-cLAG-3 stable cell line) (monkey, UniProt P18627 24-525 (human entry)).
T1 construct: Full-length monkey (Chinese monkey) LAG-3 gene expressed on HEK293 cells
T1 chain: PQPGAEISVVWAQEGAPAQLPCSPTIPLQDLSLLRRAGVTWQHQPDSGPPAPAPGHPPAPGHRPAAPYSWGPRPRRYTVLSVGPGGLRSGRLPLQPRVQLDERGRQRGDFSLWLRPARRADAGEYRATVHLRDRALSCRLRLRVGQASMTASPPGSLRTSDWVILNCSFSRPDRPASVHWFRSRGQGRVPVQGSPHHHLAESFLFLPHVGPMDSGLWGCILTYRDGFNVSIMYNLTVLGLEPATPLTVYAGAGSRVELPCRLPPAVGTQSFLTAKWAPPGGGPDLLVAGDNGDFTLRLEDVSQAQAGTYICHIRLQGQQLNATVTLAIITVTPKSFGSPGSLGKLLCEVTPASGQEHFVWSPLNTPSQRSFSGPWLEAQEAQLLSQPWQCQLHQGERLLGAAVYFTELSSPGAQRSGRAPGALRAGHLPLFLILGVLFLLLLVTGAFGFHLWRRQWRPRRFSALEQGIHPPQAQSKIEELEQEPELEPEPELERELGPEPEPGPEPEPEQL
The experiment can be described thus: FACS, HEK293-cLAG-3, antibody 0.013 nM. An excerpt:
The pIRES plasmid with the monkey-derived full-length gene was transfected into the HEK293 cell line to construct a HEK293 stable cell line containing monkey LAG-3 (herein referred to as HEK293-cLAG-3 stable cell line). The HEK293-hLAG-3 stable cell line and HEK293-cLAG-3 stable cell line were expanded in a T-75 cell culture flask to a 90% confluence. The medium was aspirated, and the cells were washed with HBSS (Hanks' Balanced Salt Solution) 1-2 times, then treated with a enzyme-free cell dissociation fluid (Versene solution: Life technology) and the cells were collected. The cells were washed with HBSS buffer for 1-2 times. After counted, the cells were diluted with HBSS to 1-2×10⁶ cells per ml, added with 1% goat serum blocking solution, incubated on ice for 20-30 minutes, and then washed with HBSS for 2 times by centrifugation. The collected cells were suspended in the FACS buffer (HBSS+1% BSA) to 2×10⁶ cells/ml, added as 100 microliters per well to a 96-well FACS reaction plate, added with 100 microliters per well of the antibody sample to be tested, incubated on ice for 1-2 hours. The plate was washed twice with the FACS buffer by centrifugation, added with 100 microliters of fluorescent (Alexa 488)-labeled secondary antibodies per well, and incubated on ice for 0.5-1.0 hours. The plate was washed 2-3 times with FACS buffer by centrifugation, added with 100 μl fixative solution (4% Paraformaldehyde) per well to suspend the cells. 5-10 minutes later, it was washed 1-2 times with FACS buffer by centrifugation. The cells were suspended with 100 microliters of FACS buffer, FACS (FACSCalibur, BD) was used for detection and the results were analyzed.
In general terms: In flow cytometry, cells or beads pass a laser one at a time.

The target in experiment [2] is T2, human LAG-3 protein with hFc tag (hLAG-3-hFc protein) (human, UniProt P18627 23-450).
T2 construct: also called immunogen 1; LAG-3 extracellular domain protein; not shown: human IgG Fc fragment (hFc) of the pCpC vector
T2 sequence: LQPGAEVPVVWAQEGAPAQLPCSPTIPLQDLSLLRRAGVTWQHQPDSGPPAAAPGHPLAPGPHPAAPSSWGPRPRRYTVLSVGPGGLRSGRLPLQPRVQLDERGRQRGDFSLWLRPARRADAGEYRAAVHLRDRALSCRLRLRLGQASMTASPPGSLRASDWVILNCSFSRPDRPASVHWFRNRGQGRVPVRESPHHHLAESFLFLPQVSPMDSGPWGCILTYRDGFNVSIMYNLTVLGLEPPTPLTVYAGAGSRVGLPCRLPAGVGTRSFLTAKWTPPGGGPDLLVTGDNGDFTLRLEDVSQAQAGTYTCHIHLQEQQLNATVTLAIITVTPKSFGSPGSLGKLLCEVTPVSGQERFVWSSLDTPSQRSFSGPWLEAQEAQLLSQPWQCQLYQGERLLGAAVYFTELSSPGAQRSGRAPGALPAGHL
The experiment can be described thus: ELISA, hLAG-3-hFc coated; 66.6670 nM. As for the experimental part: (§1) The plate was sealed with plastic film and incubated overnight at 4° C. The plate was washed 2 times with the plate washing solution (PBS+0.01% Tween20) on the next day, and added with the blocking solution (PBS+0.01% Tween20+1% BSA) and blocked at room temperature for 1-2 hours. The blocking solution was poured out, and the plate was added with 50-100 μl of the antibody sample to be tested to each well, incubated at 37° C. for 1-2 hours, and washed 2-3 times with a plate washing solution (PBS+0.01% Tween20). HRP (horseradish peroxidase) labeled secondary antibody was added, and the plate was incubated at 37° C. for 1-2 hours, and washed 2-3 times with a plate washing solution (PBS+0.01% Tween20). 100 μl of TMB substrate was added to each well. After incubated at room temperature for 15-30 minutes, the plate was added with 100 μl of stop solution (1.0N HCl) to each well.
(In general: In an ELISA, binding on a coated surface is turned into a signal by an enzyme label.)

Experiment [3] deals with T3, mouse LAG-3 protein with hFc tag (mLAG-3-hFc protein) (mouse; human, UniProt Q61790 24-442).
T3 construct: Made in HEK293 cells; also called mouse LAG-3 extracellular domain protein; not shown: human IgG Fc fragment (hFc) of the pCpC vector
T3 sequence: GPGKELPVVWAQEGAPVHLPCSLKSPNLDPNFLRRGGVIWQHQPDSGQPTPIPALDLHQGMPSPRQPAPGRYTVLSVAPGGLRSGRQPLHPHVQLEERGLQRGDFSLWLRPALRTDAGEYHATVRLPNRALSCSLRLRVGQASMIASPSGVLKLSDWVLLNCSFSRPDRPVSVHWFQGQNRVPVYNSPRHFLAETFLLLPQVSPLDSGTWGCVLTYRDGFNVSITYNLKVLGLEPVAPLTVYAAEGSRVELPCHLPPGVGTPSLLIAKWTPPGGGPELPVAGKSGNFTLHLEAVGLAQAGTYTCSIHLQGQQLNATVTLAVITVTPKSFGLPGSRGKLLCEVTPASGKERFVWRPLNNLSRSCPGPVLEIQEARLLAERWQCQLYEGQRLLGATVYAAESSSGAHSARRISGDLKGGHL
The experiment can be described thus: ELISA, mLAG-3-hFc coated; 66.6670 nM. As for the experimental part:
as §1

B1: 105F1E10 mouse-human chimeric antibody (antibody, V domains shown)
VH: EVQLQQSGPELVKPGASVKMSCRASGYTFTDFKMHWMKQSHGKSLEWIGYIAPNNGGTAYNQKFRGKATLTVNESSNTAYMELRSLTSEDSAVYYCVDWDDVDYWGQGTTLTVSS
VL: DIKMTQSPSSMYASLGERVTITCKASQDINSYLSWFQQKSGKSPKTLIYRANRLVDGVPSRFSGSGSGQDYSLTISSLEYEDMGIYYCLQYVEFPLTFGAGTKLELK
notes: also called mAb009-105F1E10
Regarding B1, the Mean fluorescence intensity in experiment [1] amounted to 2.89.

B2: 405B8H3 mouse-human chimeric antibody (antibody, V domains shown)
VH: QVQLQQSGAELVRPGASVTLSCKASGYTFTDYEMHWVKQTPVHGLEWIGATDPETGNSAYNQKFKGKAIMTADKSSSTAYMELRSLTSEDSAVYYCISTGWNDWGQGTSLTVSS
VL: DIKMTQSPSSMYASLGERVTITCKASQDINSYLSWFQQKPGKSPKTLIYRADRLLDGVPSRFSGSGSGQDYSLTISSLEYGDMGIYYCLQYDEFPYTFGGGTKLEIK
notes: also called mAb103-405B8H3
Turning to B2, in experiment [1], the Mean fluorescence intensity was found to be 3.52.

B3: 105F1E10 (LAG-3 mouse-human chimeric antibody) (antibody, V domains shown)
VH: EVQLQQSGPELVKPGASVKMSCRASGYTFTDFKMHWMKQSHGKSLEWIGYIAPNNGGTAYNQKFRGKATLTVNESSNTAYMELRSLTSEDSAVYYCVDWDDVDYWGQGTTLTVSS
VL: DIKMTQSPSSMYASLGERVTITCKASQDINSYLSWFQQKSGKSPKTLIYRANRLVDGVPSRFSGSGSGQDYSLTISSLEYEDMGIYYCLQYVEFPLTFGAGTKLELK
As for B3, the OD450 in experiment [2] was 3.6 OD450; in experiment [3], 0.54 OD450.

B4: 405B8H3 (LAG-3 mouse-human chimeric antibody) (antibody, V domains shown)
VH: QVQLQQSGAELVRPGASVTLSCKASGYTFTDYEMHWVKQTPVHGLEWIGATDPETGNSAYNQKFKGKAIMTADKSSSTAYMELRSLTSEDSAVYYCISTGWNDWGQGTSLTVSS
VL: DIKMTQSPSSMYASLGERVTITCKASQDINSYLSWFQQKPGKSPKTLIYRADRLLDGVPSRFSGSGSGQDYSLTISSLEYGDMGIYYCLQYDEFPYTFGGGTKLEIK
notes: also called mouse-human chimeric antibody 405B8H3
On to B4, for which the OD450 in experiment [2] was found to be 3.57 OD450; in experiment [3], 1.1 OD450.

B5: 409D4E10 (LAG-3 mouse-human chimeric antibody) (antibody, V domains shown)
VH: QVQLQQSGAELVRPGASVTLSCKASGNTFTDYEMHWVKQTPVHGLEWIGATDPETDNTAYNQKFKGKAILTTDKSSSTAYMELRSLTSEDSAVYYCITSGWNDWGQGTSLTVSS
VL: DIKMTQSPSSMYASLGERVTITCKASQDINSYLSWFQQKPGKSPKTLIYRANRLLDGVPSRFSGSGSGQDYSLTISSLEYEDMGIYYCLQYNEFPYTFGGGTKLEIK
In the case of B5, the results for the OD450 in experiment [2] and in experiment [3] were 3.73 OD450 and 1.06 OD450, respectively.

B6: 409B11E12 (LAG-3 mouse-human chimeric antibody) (antibody, V domains shown)
VH: QVQLQQSGAELVRPGASVTLSCKASGYTFTDYEMHWVKQTTVHGLEWIGATDPETSYSAYNQKFKGKAILTADKSSSTAYMELRSLTSEDSAVYYCIATGWNDWGQGTSLTVSS
VL: DLKMTQSPSSMYASLGERVTITCKASQDINSYLSWFQQKPGKSPKTLIYRANRLLDGVPSRFSGSGSGQDYSLTISSLEYEDMGIYYCLQYDEFPYTFGGGTKLEIK
Take B6: the OD450 in experiment [2] is 3.59 OD450; in experiment [3] it was 1.1 OD450.

B7: 409B11E12 mouse-human chimeric antibody (antibody, V domains shown)
VH: QVQLQQSGAELVRPGASVTLSCKASGYTFTDYEMHWVKQTTVHGLEWIGATDPETSYSAYNQKFKGKAILTADKSSSTAYMELRSLTSEDSAVYYCIATGWNDWGQGTSLTVSS
VL: DLKMTQSPSSMYASLGERVTITCKASQDINSYLSWFQQKPGKSPKTLIYRANRLLDGVPSRFSGSGSGQDYSLTISSLEYEDMGIYYCLQYDEFPYTFGGGTKLEIK
notes: also called mAb104-409B11E12
Molecule B7 came in with a Mean fluorescence intensity in experiment [1] of 3.39.

B8: 409D4E10 mouse-human chimeric antibody (antibody, V domains shown)
VH: QVQLQQSGAELVRPGASVTLSCKASGNTFTDYEMHWVKQTPVHGLEWIGATDPETDNTAYNQKFKGKAILTTDKSSSTAYMELRSLTSEDSAVYYCITSGWNDWGQGTSLTVSS
VL: DIKMTQSPSSMYASLGERVTITCKASQDINSYLSWFQQKPGKSPKTLIYRANRLLDGVPSRFSGSGSGQDYSLTISSLEYEDMGIYYCLQYNEFPYTFGGGTKLEIK
notes: also called mAb112-409D4E10
In turn, B8 showed a Mean fluorescence intensity in experiment [1] of 3.36.

B9: 556F6B8 mouse-human chimeric antibody (antibody, V domains shown)
VH: RVQLKQSGPGLVQPSQSLSITCTVSGFSLIKYGVHWVRQSPGEGLEWLGVIWRGGITDYNAAFMSRLSITKDNSKSQVFFKMNSLQADDTAIYYCAKWDGPLAMDYWGQGTSVTVSS
VL: DIVMTQSHKFLSTSVGDRVSITCKASQDVGTTVAWYQQKPGQSPKLLIYWASTRHTGVPDRFTGSGSGTDFTLTISNVQSEDLADYFCQQYSSYPYTFGGGTKLEIK
notes: also called mAb123-556F6B8; 556F8B8
In turn, B9 displayed a Mean fluorescence intensity in experiment [1] of 3.46.

B10: 556F6B8 (LAG-3 mouse-human chimeric antibody) (antibody, V domains shown)
VH: RVQLKQSGPGLVQPSQSLSITCTVSGFSLIKYGVHWVRQSPGEGLEWLGVIWRGGITDYNAAFMSRLSITKDNSKSQVFFKMNSLQADDTAIYYCAKWDGPLAMDYWGQGTSVTVSS
VL: DIVMTQSHKFLSTSVGDRVSITCKASQDVGTTVAWYQQKPGQSPKLLIYWASTRHTGVPDRFTGSGSGTDFTLTISNVQSEDLADYFCQQYSSYPYTFGGGTKLEIK
notes: also called 556F8B8
For B10, the OD450 is 3.69 OD450 in experiment [2] and 1.08 OD450 in experiment [3].
